Reference: the supplement of paper PMC6757056
± gives the standard deviation of the averaged measurements.

B1: library; a variant is named by its letters at N, in order (parent)
chain: GCUGUCACCGGUGUAUUACCCUAGUGGUCGACCGGUCUGAUGAGUCUNNNNNNAGACGAAACAGC

Legend:
[1] = variants of: B1; test: FACS-Seq fitted mean relative fluorescence mCherry/BFP without ligand (log10 relative fluorescence); ligand: hypoxanthine (xanthine aptamer); higher = higher reporter protein expression; conditions: HEK293T, ligand present: no
Procedure, shortened: (§1)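 Fluorescence comes from a normal fit to bin counts, normalized against controls. HEK293T libraries lentivirally given a ribozyme-switch mCherry reporter and an EF1α-BFP marker were enriched, incubated 48 h with or without ligand, and sorted by mCherry/BFP into 6 bins. Bin genomic DNA was PCR-amplified, barcoded and sequenced on MiSeq. The log10(mCherry/BFP) mean was scaled to five spiked-in control ribozymes.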

[2] = variants of: B1; test: normalized RNA/DNA level with ligand (relative to sTRSVctl = 100) (log10 (% of sTRSVctl)); ligand: hypoxanthine (xanthine aptamer); higher = less ribozyme self-cleavage, higher mRNA level; conditions: ligand concentration (+) RNA-Seq: 5 mM, HEK293T, reporter: mCherry (pCS4076), ligand present: yes
Experimental: (§2)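 Hammerhead (sTRSV) ribozyme switch libraries with a ligand aptamer grafted on stem I and a randomized N4-6 loop II, cloned into the 3' UTR of mCherry and transiently transfected into HEK293T cells; RNA-Seq 72 h post transfection with ligand added 1 h before transfection; RNA read count / plasmid DNA read count normalized to the non-cleaving sTRSVctl (x100), log10; sequences with >100 DNA reads. FACS-Seq: lentiviral library sorted into 6 bins after 48 h ligand, log-normal fit mean of mCherry/BFP scaled to controls. Printed sequences are partial switch sequences.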

[3] = variants of: B1; test: normalized RNA/DNA level without ligand (relative to sTRSVctl = 100) (log10 (% of sTRSVctl)); ligand: hypoxanthine (xanthine aptamer); higher = less ribozyme self-cleavage, higher mRNA level; conditions: HEK293T, reporter: mCherry (pCS4076), ligand present: no
Experimental: as §2

[4] = variants of: B1; test: FACS-Seq fitted mean relative fluorescence mCherry/BFP with ligand (log10 relative fluorescence); ligand: hypoxanthine (xanthine aptamer); ligand concentration (+) FACS-Seq: 5 mM; higher = higher reporter protein expression; conditions: HEK293T, ligand present: yes
Procedure, shortened: as §1

Variant	FACS-Seq fitted mean (log10) [1]	normalized RNA/DNA level with ligand (log10) [2]	normalized RNA/DNA level without ligand (log10) [3]	FACS-Seq fitted mean (log10) [4]
UCCCAC	0.0771 ± 0.00054	1.894 ± 0.014	1.56 ± 0.017	0.177 ± 0.043
UCCCAG	0.261 ± 0.0092	1.84 ± 0.0087	1.35 ± 0.023	0.506 ± 0.016
UCGCCU	-0.0175 ± 0.065	2.036 ± 0.016	1.89 ± 0.062	0.035 ± 0.011
GCGCAG	-0.0972 ± 0.035	1.58 ± 0.048	1.06 ± 0.11	0.617 ± 0.052
GCGCAC	0.112 ± 0.061	1.8 ± 0.2	1.412 ± 0.0031	0.0185 ± 0.28
GCGCCC	0.221 ± 0.029	1.95 ± 0.071	1.742 ± 0.0061	0.44444 ± 0.00011
UCCCCA	0.858 ± 0.055	1.94 ± 0.08	1.82 ± 0.036	0.843 ± 0.088
CCCACA	0.706 ± 0.022	1.99 ± 0.086	1.862 ± 0.0068	0.739 ± 0.032
GCGGAA	0.328 ± 0.11	1.88 ± 0.033	1.53 ± 0.069	0.67 ± 0.06
GCGGAC	0.00746 ± 0.015	1.75 ± 0.046	1.31 ± 0.032	0.546 ± 0.037
CCGCUA	0.42 ± 0.077	2.03 ± 0.053	1.827 ± 0.01	0.474 ± 0.034
CCCUCU	0.556 ± 0.081	1.98 ± 0.036	1.994 ± 0.015	0.481 ± 0.086
UCGAGU	-0.023 ± 0.0044	1.74 ± 0.037	1.2 ± 0.071	0.407 ± 0.029
UCGAGA	0.0619 ± 0.098	1.74 ± 0.046	1.16 ± 0.086	0.455 ± 0.15
UCCCGU	0.434 ± 0.043	1.934 ± 0.0021	1.703 ± 0.015	0.554 ± 0.048
UCGCAG	0.221 ± 0.04	1.918 ± 0.015	1.65 ± 0.078	0.46 ± 0.083
UCGCAA	0.477 ± 0.093	1.9 ± 0.032	1.6 ± 0.06	0.599 ± 0.058
ACCAAA	0.2 ± 0.028	1.938 ± 0.011	1.8 ± 0.018	0.487 ± 0.046
ACCAAC	0.0939 ± 0.026	1.93 ± 0.025	1.883 ± 0.0074	0.317 ± 0.049
ACCAAU	0.003 ± 0.21	1.9 ± 0.091	1.74 ± 0.026	0.157 ± 0.038
ACCAGU	-0.346 ± 0.35	1.907 ± 0.0063	1.8 ± 0.064	-0.721 ± 0.15
CCGAGG	0.00201 ± 0.0053	1.839 ± 0.0063	1.37 ± 0.038	0.423 ± 0.024
CCGAGA	0.353 ± 0.076	1.87 ± 0.042	1.51 ± 0.046	0.648 ± 0.061
ACCUGG	0.3055 ± 0.0017	1.914 ± 0.011	1.55 ± 0.021	0.817 ± 0.071

Variant	FACS-Seq fitted mean (log10) [1]	normalized RNA/DNA level with ligand (log10) [2]	normalized RNA/DNA level without ligand (log10) [3]	FACS-Seq fitted mean (log10) [4]
ACCUGA	0.156 ± 0.046	1.96 ± 0.021	1.79 ± 0.049	0.323 ± 0.057
ACGAGA	-0.0663 ± 0.023	1.67 ± 0.045	1.14 ± 0.019	0.488 ± 0.018
ACGAGG	-0.105 ± 0.022	1.412 ± 0.013	1.04 ± 0.14	0.777 ± 0.034
ACGAGU	0.0593 ± 0.021	1.76 ± 0.022	1.11 ± 0.047	0.609 ± 0.0067
ACGAGC	0.0832 ± 0.041	1.84 ± 0.049	1.27 ± 0.045	0.585 ± 0.029
ACCGUA	0.247 ± 0.0083	1.93 ± 0.065	1.822 ± 0.014	0.474 ± 0.038
ACCAUA	-0.27 ± 0.052	1.85 ± 0.049	1.849 ± 0.01	-0.201 ± 0.13
ACCAUU	0.187 ± 0.05	1.971 ± 0.015	1.839 ± 0.007	0.395 ± 0.049
GCCGUU	-0.297 ± 0.0052	1.978 ± 0.019	1.92 ± 0.051	0.037 ± 0.093
UCCACG	-0.24 ± 0.012	1.94 ± 0.14	1.71 ± 0.036	0.0232 ± 0.017
CCAUUC	-0.142 ± 0.078	2.022 ± 0.0033	1.9 ± 0.07	0.309 ± 0.014
ACGACU	0.28 ± 0.024	1.84 ± 0.039	1.59 ± 0.0056	0.447 ± 0.037
ACGACA	0.53 ± 0.013	1.912 ± 0.013	1.638 ± 0.016	0.613 ± 0.031
ACGACG	0.162 ± 0.0022	1.82 ± 0.045	1.26 ± 0.019	0.706 ± 0.059
CCGCAG	0.345 ± 0.031	1.82 ± 0.072	1.39 ± 0.032	0.638 ± 0.042
GCCUGA	0.389 ± 0.04	1.99 ± 0.022	1.81 ± 0.038	0.6019 ± 0.0038
UCCUGC	0.86 ± 0.054	2.01 ± 0.056	1.919 ± 0.018	0.812 ± 0.091
UCCUGG	0.439 ± 0.047	1.94 ± 0.025	1.77 ± 0.073	0.518 ± 0.021
UCGCGU	0.334 ± 0.04	1.9 ± 0.026	1.56 ± 0.048	0.509 ± 0.016
ACGGAA	0.072 ± 0.016	1.891 ± 0.013	1.45 ± 0.034	0.327 ± 0.04
ACGGAC	0.332 ± 0.11	1.92 ± 0.06	1.7 ± 0.029	0.565 ± 0.062
UCCCUG	0.429 ± 0.01	1.87 ± 0.076	1.41 ± 0.0038	0.587 ± 0.0069
CCCGGG	0.92 ± 0.051	1.94 ± 0.12	1.6826 ± 0.0015	0.833 ± 0.061
CCCGGA	0.102 ± 0.0056	1.97 ± 0.042	1.88 ± 0.036	0.0786 ± 0.0026

Variant	FACS-Seq fitted mean (log10) [1]	normalized RNA/DNA level with ligand (log10) [2]	normalized RNA/DNA level without ligand (log10) [3]	FACS-Seq fitted mean (log10) [4]
GCCGGU	0.478 ± 0.08	1.957 ± 0.01	1.982 ± 0.01	0.744 ± 0.043
UCCGGG	-0.0285 ± 0.023	1.98 ± 0.047	1.93 ± 0.031	0.2736 ± 0.00093
UCCGGA	0.226 ± 0.02	1.96 ± 0.031	1.75 ± 0.021	0.384 ± 0.0052
CCAUGG	0.39 ± 0.0048	1.85 ± 0.07	1.47 ± 0.018	0.611 ± 0.053
CCAUGA	0.311 ± 0.11	1.986 ± 0.016	1.788 ± 0.016	0.414 ± 0.064
ACGAUA	0.143 ± 0.0029	1.87 ± 0.03	1.582 ± 0.013	0.508 ± 0.011
ACGAUG	0.311 ± 0.018	1.734 ± 0.013	1.23 ± 0.036	0.629 ± 0.079
ACCCUG	0.60276 ± 0.00041	1.875 ± 0.0043	1.411 ± 0.0069	0.786 ± 0.12
GCCCUG	-0.113 ± 0.029	1.873 ± 0.0091	1.49 ± 0.049	0.497 ± 0.092
GCCCUU	0.019 ± 0.061	1.95 ± 0.065	1.92 ± 0.058	0.231 ± 0.0079
CCCUUA	0.315 ± 0.0096	2.002 ± 0.019	1.905 ± 0.014	0.279 ± 0.083
ACGCGC	0.307 ± 0.06	1.88 ± 0.052	1.54 ± 0.019	0.7 ± 0.02
ACGCGG	-0.216 ± 0.014	1.6394 ± 0.00079	1.22 ± 0.012	0.465 ± 0.047
CCGGAC	0.196 ± 0.035	2 ± 0.05	1.79 ± 0.077	0.439 ± 0.041
CCGGAA	0.279 ± 0.013	1.91 ± 0.027	1.71 ± 0.044	0.1512 ± 0.00072
CCCUAA	0.693 ± 0.022	1.94 ± 0.022	1.907 ± 0.011	0.837 ± 0.06
GCGCGG	-0.388 ± 0.022	1.81 ± 0.072	1.3 ± 0.021	0.464 ± 0.018
GCCAAG	0.432 ± 0.0083	1.829 ± 0.011	1.4 ± 0.051	0.713 ± 0.047
GCCAAA	0.458 ± 0.073	1.95 ± 0.042	1.813 ± 0.017	0.612 ± 0.1
CCGACU	0.195 ± 0.058	1.989 ± 0.013	1.82 ± 0.038	0.381 ± 0.0067
CCGACG	0.527 ± 0.0072	1.9241 ± 0.0017	1.685 ± 0.0014	0.6331 ± 0.0049
CCGACC	0.287 ± 0.081	2.08 ± 0.082	1.85 ± 0.063	0.555 ± 0.015
GCCAUA	0.231 ± 0.083	1.95 ± 0.049	1.85 ± 0.079	0.487 ± 0.0075
